The labels stand for the following.
B1: Table S3 C row 22 (dsDNA)
DNA 1: CCGGATTGCCTTCACAGGAAGGGAAAGTCACTCCGG
DNA 2: CCGGAGTGACTTTCCCTTCCTGTGAAGGCAATCCGG
B2: Table S3 C row 9 (dsDNA)
DNA 1: CGTGACGCAGGGAAAGTTCCGGCTTCGGCCTCCGCC
DNA 2: GGCGGAGGCCGAAGCCGGAACTTTCCCTGCGTCACG
B3: Table S3 C row 192 (dsDNA)
DNA 1: CCGCGCAAGCCCCGACATCCGGTTGGCCGGCGTGGG
DNA 2: CCCACGCCGGCCAACCGGATGTCGGGGCTTGCGCGG
B4: Table S3 C row 81 (dsDNA)
DNA 1: GGCCCATTGTCCGCGCTTCCGTTCAGGCTCCGCCTC
DNA 2: GAGGCGGAGCCTGAACGGAAGCGCGGACAATGGGCC
B5: Table S3 C row 50 (dsDNA)
DNA 1: GCGTGACAGAATGTGCTTCCGCTTGCGCCTCTGAGC
DNA 2: GCTCAGAGGCGCAAGCGGAAGCACATTCTGTCACGC
B6: Table S3 C row 72 (dsDNA)
DNA 1: CCCCGTCCACGGCCCCGGAAGCTGACGTCGCCGAAG
DNA 2: CTTCGGCGACGTCAGCTTCCGGGGCCGTGGACGGGG
B7: Table S3 C row 200 (dsDNA)
DNA 1: GCCCCTCACAGCCTGCTTCCGGGAGCCGGGCAGGCC
DNA 2: GGCCTGCCCGGCTCCCGGAAGCAGGCTGTGAGGGGC
B8: Table S3 C row 11 (dsDNA)
DNA 1: AAAAGCATCCCCAGACTTCCTGTTGGGAGCTCTCTG
DNA 2: CAGAGAGCTCCCAACAGGAAGTCTGGGGATGCTTTT
B9: Table S3 C row 52 (dsDNA)
DNA 1: TTTCGCCGACCCCGCCGGAAGACCAGGCCGGCGCGG
DNA 2: CCGCGCCGGCCTGGTCTTCCGGCGGGGTCGGCGAAA
B10: Table S3 C row 82 (dsDNA)
DNA 1: TGATGGGGATCGGTCCGGATGTACTTCAACATCTTT
DNA 2: AAAGATGTTGAAGTACATCCGGACCGATCCCCATCA
B11: Table S3 C row 26 (dsDNA)
DNA 1: GACACTGGAGGGAGCCGGAAGTACCTCGGAGTTTTA
DNA 2: TAAAACTCCGAGGTACTTCCGGCTCCCTCCAGTGTC
B12: Table S3 C row 164 (dsDNA)
DNA 1: GGGCTGGGTGGAGACAGGAAGCTTCAGAGCCACTCC
DNA 2: GGAGTGGCTCTGAAGCTTCCTGTCTCCACCCAGCCC
B13: Table S3 C row 132 (dsDNA)
DNA 1: GAGAGACCTGGGCCACTTCCGGGAGAACCCGAGCTT
DNA 2: AAGCTCGGGTTCTCCCGGAAGTGGCCCAGGTCTCTC
B14: Table S3 C row 29 (dsDNA)
DNA 1: CCGGTCTCGCGATAGCGGAAAGGGCTGTACCATCTG
DNA 2: CAGATGGTACAGCCCTTTCCGCTATCGCGAGACCGG
B15: Table S3 C row 179 (dsDNA)
DNA 1: CACAAGCGAAACATTCGGAAGCAATTTACTTGCAGC
DNA 2: GCTGCAAGTAAATTGCTTCCGAATGTTTCGCTTGTG
B16: Table S3 C row 69 (dsDNA)
DNA 1: TCCCCGAGCGTGCAGCTTCCGGTGAGGGCAGCCCCA
DNA 2: TGGGGCTGCCCTCACCGGAAGCTGCACGCTCGGGGA
B17: Table S3 C row 127 (dsDNA)
DNA 1: CTCCGAACTTAGGACAGGAAGAAACAGGCACATTTC
DNA 2: GAAATGTGCCTGTTTCTTCCTGTCCTAAGTTCGGAG
B18: Table S3 C row 122 (dsDNA)
DNA 1: ACCCTGAAGCCTCGCCGGAACTCGCGTCTGGGGCCA
DNA 2: TGGCCCCAGACGCGAGTTCCGGCGAGGCTTCAGGGT
B19: Table S3 C row 53 (dsDNA)
DNA 1: GCTGGGACGCCAGACCTTCCGGGTTGCCCGGCCCCG
DNA 2: CGGGGCCGGGCAACCCGGAAGGTCTGGCGTCCCAGC
B20: Table S3 C row 87 (dsDNA)
DNA 1: AGAGGAGGGGCCCGGCGGAAACTGCCGAGGTCTCCC
DNA 2: GGGAGACCTCGGCAGTTTCCGCCGGGCCCCTCCTCT
B21: Table S3 C row 144 (dsDNA)
DNA 1: GTTTAAGCTCAGCGCCTTCCTGGTTCTAGCGCCAGG
DNA 2: CCTGGCGCTAGAACCAGGAAGGCGCTGAGCTTAAAC
B22: Table S3 C row 107 (dsDNA)
DNA 1: CTCGAGCCCGCTCGGCTTCCGTAGCCCCGCCCCATC
DNA 2: GATGGGGCGGGGCTACGGAAGCCGAGCGGGCTCGAG
B23: Table S3 C row 65 (dsDNA)
DNA 1: TTCACTGAACGGCTTCATCCTGTGCTTTGGGAGGCA
DNA 2: TGCCTCCCAAAGCACAGGATGAAGCCGTTCAGTGAA
B24: Table S3 C row 36 (dsDNA)
DNA 1: GGACGGCCTCTGAAGCTTCCGCGCCGACTTCTCCGA
DNA 2: TCGGAGAAGTCGGCGCGGAAGCTTCAGAGGCCGTCC
B25: Table S3 C row 74 (dsDNA)
DNA 1: GTCATCTCGTTGACACTTCCGCTGACCCGTGCAGTT
DNA 2: AACTGCACGGGTCAGCGGAAGTGTCAACGAGATGAC
B26: Table S3 C row 174 (dsDNA)
DNA 1: TTGCTCTGCGCATGGCGGAAAGGGTGCGCCGCCTGT
DNA 2: ACAGGCGGCGCACCCTTTCCGCCATGCGCAGAGCAA
B27: Table S3 C row 62 (dsDNA)
DNA 1: GGGAGAAGCGGGAGGCGGAACGCCCGAGGGCGCCCT
DNA 2: AGGGCGCCCTCGGGCGTTCCGCCTCCCGCTTCTCCC
B28: Table S3 C row 89 (dsDNA)
DNA 1: AGCACAGCTTCGGGCCGGAATCACGATCCACCAGAC
DNA 2: GTCTGGTGGATCGTGATTCCGGCCCGAAGCTGTGCT
B29: Table S3 C row 180 (dsDNA)
DNA 1: CTGTGCAGCGTCCTCCTTCCGGGTGCAGGCGGGCCT
DNA 2: AGGCCCGCCTGCACCCGGAAGGAGGACGCTGCACAG
B30: Table S3 C row 75 (dsDNA)
DNA 1: GGAGCTCACCTTCCAGTTCCGGGAGGCAGGCCGGCC
DNA 2: GGCCGGCCTGCCTCCCGGAACTGGAAGGTGAGCTCC
B31: Table S3 C row 57 (dsDNA)
DNA 1: TTCATTGTTAGGGAACATCCGGGCCTGTCCCCTCCC
DNA 2: GGGAGGGGACAGGCCCGGATGTTCCCTAACAATGAA
B32: Table S3 C row 172 (dsDNA)
DNA 1: TGGCTGAGACTGAGACGGAAGGATCCTTGCGCCCAG
DNA 2: CTGGGCGCAAGGATCCTTCCGTCTCAGTCTCAGCCA
B33: Table S3 C row 128 (dsDNA)
DNA 1: GGTCCCGCCCCTGGCCGGAAGTTCTGGCGGCGGAGC
DNA 2: GCTCCGCCGCCAGAACTTCCGGCCAGGGGCGGGACC
B34: Table S3 C row 176 (dsDNA)
DNA 1: GCCGCCATGGGGCGCTATCCGGCCCCAGCCGGGACC
DNA 2: GGTCCCGGCTGGGGCCGGATAGCGCCCCATGGCGGC
B35: Table S3 C row 79 (dsDNA)
DNA 1: TTGCAAGTACACCTGCATCCGGTGGCATGTTTTAGT
DNA 2: ACTAAAACATGCCACCGGATGCAGGTGTACTTGCAA
B36: Table S3 C row 161 (dsDNA)
DNA 1: CTATCCCAGGCCTCGCTTCCGGTGACATCATGTCTC
DNA 2: GAGACATGATGTCACCGGAAGCGAGGCCTGGGATAG
B37: Table S3 C row 178 (dsDNA)
DNA 1: TGGCTGCTACGTCGTCTTCCTGGGCGAAAGTGCCTG
DNA 2: CAGGCACTTTCGCCCAGGAAGACGACGTAGCAGCCA
B38: Table S3 C row 173 (dsDNA)
DNA 1: CGCTATCGGGGCAGCAGGAAGTCGCCATCTTGAATC
DNA 2: GATTCAAGATGGCGACTTCCTGCTGCCCCGATAGCG
B39: Table S3 C row 166 (dsDNA)
DNA 1: ACCCCGGGTCGGAGTGTTCCGGCCCGGCCAGCCCCG
DNA 2: CGGGGCTGGCCGGGCCGGAACACTCCGACCCGGGGT
B40: Table S3 C row 138 (dsDNA)
DNA 1: GGGGCCTGTTGTAGTTTTCCTGCATTCAAAGTACCC
DNA 2: GGGTACTTTGAATGCAGGAAAACTACAACAGGCCCC
B41: Table S3 C row 188 (dsDNA)
DNA 1: GCAAGCGGGCCTGGGCGGATGTCTCGGGCGCGTCGG
DNA 2: CCGACGCGCCCGAGACATCCGCCCAGGCCCGCTTGC
B42: Table S3 C row 170 (dsDNA)
DNA 1: ACCGGCGCGCACACGCTTCCGTGCTACGAGGCACTT
DNA 2: AAGTGCCTCGTAGCACGGAAGCGTGTGCGCGCCGGT

We go through 42 molecules from PMC10681739, “High-throughput data and modeling reveal insights into the mechanisms of cooperative DNA-binding by transcription factor proteins”.

This data set deals with RUNX1 (Homo sapiens, UniProt Q01196). In words: gcPBM; 2 nM RUNX1. As to conditions: tags: N-terminal GST (pDEST15), kept (PMC6008103); label: surface-attached array probe.
RUNX1, sequence (Q01196 whole entry): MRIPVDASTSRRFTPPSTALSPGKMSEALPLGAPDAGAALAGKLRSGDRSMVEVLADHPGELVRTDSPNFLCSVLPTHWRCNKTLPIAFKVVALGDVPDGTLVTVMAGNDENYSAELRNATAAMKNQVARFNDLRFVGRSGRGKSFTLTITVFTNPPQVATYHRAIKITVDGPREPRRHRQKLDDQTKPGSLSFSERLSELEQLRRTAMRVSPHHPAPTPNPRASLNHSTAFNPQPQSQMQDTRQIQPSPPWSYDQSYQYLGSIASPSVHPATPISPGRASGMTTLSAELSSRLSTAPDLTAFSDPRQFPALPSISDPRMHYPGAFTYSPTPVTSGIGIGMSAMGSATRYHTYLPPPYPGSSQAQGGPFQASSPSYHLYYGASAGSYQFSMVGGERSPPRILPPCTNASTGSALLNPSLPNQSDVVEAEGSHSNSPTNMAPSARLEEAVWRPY
For the molecule B1, the binding signal was 737 PBM fluorescence, median of replicate spots.
Then B2, with 736 PBM fluorescence, median of replicate spots; and B3, with 751 PBM fluorescence, median of replicate spots.
Take B4: the binding signal is 725 PBM fluorescence, median of replicate spots.
Then B5, with 755 PBM fluorescence, median of replicate spots; and B6, with 733 PBM fluorescence, median of replicate spots; and B7, with 726 PBM fluorescence, median of replicate spots.
Then B8, with 697 PBM fluorescence, median of replicate spots; and B9, with 732 PBM fluorescence, median of replicate spots; and B10, with 747 PBM fluorescence, median of replicate spots.
Then B11, with 723 PBM fluorescence, median of replicate spots; and B12, with 735 PBM fluorescence, median of replicate spots.
In the case of B13, the binding signal was 721 PBM fluorescence, median of replicate spots.
Consider B14, for which the binding signal is 697 PBM fluorescence, median of replicate spots.
The result for B15 reads 751 PBM fluorescence, median of replicate spots; that for B16, 735 PBM fluorescence, median of replicate spots.
The result for B17 reads 751 PBM fluorescence, median of replicate spots.
With B18, the binding signal is 728 PBM fluorescence, median of replicate spots.
Then B19, with 748 PBM fluorescence, median of replicate spots; and B20, with 733 PBM fluorescence, median of replicate spots.
For the molecule B21, the binding signal is 729 PBM fluorescence, median of replicate spots.
For the molecule B22, the binding signal was 743 PBM fluorescence, median of replicate spots.
Then B23, with 718 PBM fluorescence, median of replicate spots.
The result for B24 reads 741 PBM fluorescence, median of replicate spots; that for B25, 697 PBM fluorescence, median of replicate spots.
Then B26, with 735 PBM fluorescence, median of replicate spots; and B27, with 722 PBM fluorescence, median of replicate spots.
Regarding B28, the binding signal is 755 PBM fluorescence, median of replicate spots.
Take B29: the binding signal is 722 PBM fluorescence, median of replicate spots.
In the case of B30, the binding signal was 740 PBM fluorescence, median of replicate spots.
The result for B31 reads 752 PBM fluorescence, median of replicate spots.
Then B32, with 723 PBM fluorescence, median of replicate spots; and B33, with 714 PBM fluorescence, median of replicate spots; and B34, with 729 PBM fluorescence, median of replicate spots.
Then B35, with 712 PBM fluorescence, median of replicate spots.
Consider B36, for which the binding signal was 749 PBM fluorescence, median of replicate spots.
With B37, the binding signal is 726 PBM fluorescence, median of replicate spots.
Take B38: the binding signal was 725 PBM fluorescence, median of replicate spots.
The result for B39 reads 724 PBM fluorescence, median of replicate spots; that for B40, 732 PBM fluorescence, median of replicate spots.
As for B41, the binding signal was 720 PBM fluorescence, median of replicate spots.
The result for B42 reads 726 PBM fluorescence, median of replicate spots.
